Target: Recombinant human Pentraxin 3 (PTX3) (human) (UniProt P26022)
Experiment: ELISA

UniProt P26022, sequence (P26022 18-381): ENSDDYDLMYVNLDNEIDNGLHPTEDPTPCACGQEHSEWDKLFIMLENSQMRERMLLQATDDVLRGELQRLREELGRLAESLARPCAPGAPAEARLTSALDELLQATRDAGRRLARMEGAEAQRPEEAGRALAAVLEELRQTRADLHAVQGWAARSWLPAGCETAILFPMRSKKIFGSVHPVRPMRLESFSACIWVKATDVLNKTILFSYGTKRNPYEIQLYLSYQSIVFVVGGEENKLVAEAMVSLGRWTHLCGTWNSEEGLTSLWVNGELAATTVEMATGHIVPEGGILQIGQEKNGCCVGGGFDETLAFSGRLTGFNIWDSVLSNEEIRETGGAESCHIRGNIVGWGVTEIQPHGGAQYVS

In the case of “Human TSP1 construct E123CaG-1 (type II repeats plus type III repeats and globular C-terminus) (domain or fragment)”, the increase of OD 450 nm over control buffer (% fold increase) is reported as 64.
